Measured values from US20150111821A1.

Molecular target: FGF receptors
Assay: cell-based or functional assay

FGF1^ΔNT (10-140αα) (SEQ ID NO: 7), N-terminally truncated FGF1 (from UniProt P05230 25-155) (ligand; the values are: fold reduction in signaling)
FGFR signaling (phosphorylation of downstream ERK and AKT pathways, Western blot, HEK293 cells): 100 fold
